Data as given in patent US6399321B1 (National Research Council of Canada, priority 1999, dated 2002).
Blank lines part the entries; values can stand above or below the molecule they belong to.

Assays:
[1] = tested on: acid phosphatase; test: Glucosylation of purified acid phosphatase by wild-type and mutant RUGT; type: biochemical, Saccharomyces cerevisiae; settings: purified acid phosphatase as substrate
Procedure: Based on sequence alignments with other nucleoside diphosphate glycosyltransferases, four independent RUGT mutants D1334A, D1336A, Q1429A and N1433A were designed, amplified by PCR, cloned and sequenced to confirm the presence of diagnostic PstI, BsrBI, XbaI and NaeI sites respectively (FIG. 8).
Acid phosphatase was the major substrate glycoprotein used to determine RUGT activity in this study. RNase B was prepared as described elsewhere (Zapun, 1998). Soybean agglutinin (Sigma) was denatured by heating at 100° C. for 15 minutes. Bovine thyroglobulin (Sigma) was denatured with 8M urea and dialyzed against ddH2O. […] Reactions were either analyzed by SDS-PAGE followed by fluorography using Amplify (Amersham Life Science Inc.) or precipitated with ice-cold 10% trichloroacetic acid (TCA), washed twice with TCA and the pellets resuspended in 50 μl 1M Tris-HCl pH 8.0 before counting in a beta counter to quantitate the incorporation of ^3H-glucose in acid phosphatase.

[2] = target: T1, RUGT (Rattus norvegicus, UniProt Q9JLA3); test: Glucosyltransferase assay: incorporation of 3H-glucose in glycoprotein acceptor-substrates by RUGT; type: biochemical; settings: for RUGT activity towards denatured versus native substrate: reduced unfolded, heat-treated or urea-treated versus native protein
T1 construct: honeybee melittin signal peptide (21 aa, replaces the first 18 aa of RUGT) (N, cleaved yes); made in house; host or cells: Sf9 insect cells, baculovirus (pFastBac1); purified from culture medium
T1 sequence (Q9JLA3 43-1547 limits assumed): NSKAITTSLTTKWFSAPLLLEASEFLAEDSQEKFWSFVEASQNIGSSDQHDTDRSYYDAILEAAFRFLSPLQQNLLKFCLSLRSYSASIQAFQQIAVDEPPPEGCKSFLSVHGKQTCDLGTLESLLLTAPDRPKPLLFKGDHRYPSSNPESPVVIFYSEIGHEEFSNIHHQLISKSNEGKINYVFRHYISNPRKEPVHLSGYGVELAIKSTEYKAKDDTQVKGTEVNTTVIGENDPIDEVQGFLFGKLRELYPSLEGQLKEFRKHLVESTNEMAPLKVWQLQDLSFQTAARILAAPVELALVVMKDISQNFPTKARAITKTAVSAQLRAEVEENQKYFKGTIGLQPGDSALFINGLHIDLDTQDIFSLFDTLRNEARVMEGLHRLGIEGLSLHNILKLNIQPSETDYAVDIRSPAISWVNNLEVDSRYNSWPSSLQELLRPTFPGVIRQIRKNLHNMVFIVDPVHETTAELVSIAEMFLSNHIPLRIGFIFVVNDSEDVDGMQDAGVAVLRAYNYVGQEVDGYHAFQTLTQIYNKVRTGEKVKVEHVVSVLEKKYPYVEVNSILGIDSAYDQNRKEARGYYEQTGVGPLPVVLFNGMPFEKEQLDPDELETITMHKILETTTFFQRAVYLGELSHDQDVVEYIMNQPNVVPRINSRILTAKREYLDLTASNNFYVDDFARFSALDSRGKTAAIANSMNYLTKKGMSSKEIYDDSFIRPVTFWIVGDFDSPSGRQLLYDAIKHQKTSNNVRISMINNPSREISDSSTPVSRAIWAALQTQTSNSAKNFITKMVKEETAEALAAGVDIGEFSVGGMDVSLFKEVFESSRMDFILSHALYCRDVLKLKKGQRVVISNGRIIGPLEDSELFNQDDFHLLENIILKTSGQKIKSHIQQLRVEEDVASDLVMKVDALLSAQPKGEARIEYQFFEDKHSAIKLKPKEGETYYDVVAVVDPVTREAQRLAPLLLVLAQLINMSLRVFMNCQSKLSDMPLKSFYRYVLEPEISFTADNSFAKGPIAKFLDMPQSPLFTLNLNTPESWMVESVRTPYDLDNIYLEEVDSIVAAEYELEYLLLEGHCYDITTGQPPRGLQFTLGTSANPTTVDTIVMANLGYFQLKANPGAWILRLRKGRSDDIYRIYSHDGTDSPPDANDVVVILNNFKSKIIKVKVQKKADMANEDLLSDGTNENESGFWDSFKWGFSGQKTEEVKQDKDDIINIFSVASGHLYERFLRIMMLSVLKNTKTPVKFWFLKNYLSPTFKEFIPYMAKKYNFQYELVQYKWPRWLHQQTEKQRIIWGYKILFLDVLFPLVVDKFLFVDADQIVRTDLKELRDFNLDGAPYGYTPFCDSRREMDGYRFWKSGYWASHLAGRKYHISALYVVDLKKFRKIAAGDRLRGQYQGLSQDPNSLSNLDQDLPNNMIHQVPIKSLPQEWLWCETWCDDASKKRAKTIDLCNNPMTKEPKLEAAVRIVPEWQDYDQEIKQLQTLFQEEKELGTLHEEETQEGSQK
Procedure: Acid phosphatase was the major substrate glycoprotein used to determine RUGT activity in this study. RNase B was prepared as described elsewhere (Zapun, 1998). Soybean agglutinin (Sigma) was denatured by heating at 100° C. for 15 minutes. Bovine thyroglobulin (Sigma) was denatured with 8M urea and dialyzed against ddH2O. […] Amersham Life Science Inc.) and incubated at 37° C. for 2 hours. Reactions were either analyzed by SDS-PAGE followed by fluorography using Amplify (Amersham Life Science Inc.) or precipitated with ice-cold 10% trichloroacetic acid (TCA), washed twice with TCA and the pellets resuspended in 50 μl 1M Tris-HCl pH 8.0 before counting in a beta counter to quantitate the incorporation of ^3H-glucose in acid phosphatase.

[3] = target: T1, RUGT; test: Kinetics measurements: Km of UDP-glucose and acid phosphatase for RUGT; type: biochemical; settings: in the presence of 5 μM UDP-glucose; read-out: apparent Km for acid phosphatase
Procedure: Acid phosphatase was the major substrate glycoprotein used to determine RUGT activity in this study. […] Soybean agglutinin (Sigma) was denatured by heating at 100° C. for 15 minutes. Bovine thyroglobulin (Sigma) was denatured with 8M urea and dialyzed against ddH2O. […] Reactions were either analyzed by SDS-PAGE followed by fluorography using Amplify (Amersham Life Science Inc.) or precipitated with ice-cold 10% trichloroacetic acid (TCA), washed twice with TCA and the pellets resuspended in 50 μl 1M Tris-HCl pH 8.0 before counting in a beta counter to quantitate the incorporation of ^3H-glucose in acid phosphatase.
Glucosylation reactions were incubated at 37° C. and TCA precipitated at various times up to 120 minutes to determine the rate of incorporation of ^3H-glucose in acid phosphatase.

Molecule: D1334A: recombinant rat UGGT (RUGT) mutant, D1334 mutated to alanine
activity relative to the wild-type enzyme (incorporation of 3H-glucose) [1]: no activity at all

Molecule: D1336A: recombinant rat UGGT (RUGT) mutant, D1336 mutated to alanine
activity relative to the wild-type enzyme (incorporation of 3H-glucose) [1]: no activity at all

Molecule: N1433A: recombinant rat UGGT (RUGT) mutant, N1433 mutated to alanine
activity relative to the wild-type enzyme (incorporation of 3H-glucose) [1]: approximately 2%

Molecule: Q1429A: recombinant rat UGGT (RUGT) mutant, Q1429 mutated to alanine
activity relative to the wild-type enzyme (incorporation of 3H-glucose) [1]: ~20%

Molecule: bovine thyroglobulin: bovine thyroglobulin (Sigma), denatured with 8M urea; acceptor substrate [reference compound]
RUGT activity towards denatured versus native substrate [2]: better substrates than the native proteins

Molecule: soybean agglutinin: soybean agglutinin (Sigma), denatured by heating at 100° C.; acceptor substrate [reference compound]
RUGT activity towards denatured versus native substrate [2]: better substrates than the native proteins

B1: RNase B: bovine pancreatic ribonuclease B, glycoprotein acceptor substrate (protein, UniProt P61823 27-150, looked up)
Ribonuclease pancreatic: KETAAAKFERQHMDSSTSAASSSNYCNQMMKSRNLTKDRCKPVNTFVHESLADVQAVCSQKNVACKNGQTNCYQSYSTMSITDCRETGSSKYPNCAYKTTQANKHIIVACEGNPYVPVHFDASV
modifications: glycoform B
notes: bovine pancreatic ribonuclease B, glycoprotein acceptor substrate
RUGT activity towards denatured versus native substrate [2]: greater activity towards reduced unfolded RNase B than towards the native protein

incorporation of 3H-glucose on a molar basis relative to RNase B ([2]; assuming MW of 14 kDa for RNase B): 130 × | incorporation of 3H-glucose on a molar basis relative to SBA ([2]; assuming MW of 31 kDa for SBA): 100 × | incorporation of 3H-glucose on a molar basis relative to Tg ([2]; assuming MW of 303 kDa for Tg): 4 times
B2: acid phosphatase: yeast acid phosphatase purified from S. cerevisiae DT111, with asparagine-linked [GlcNAc]2-(Man)9 glycans; UGGT acceptor substrate (protein)
chain: GTIPLGKLADVDKIGTQKDIFPFLGGAGPYYSFPGDYGISRDLPEGCEMKQLQMVGRHGERYPTVSLAKTIKSTWYKLSNYTRQFNGSLSFLNDDYEFFIRDDDDLEMETTFANSDDVLNPYTGEMNAKRHARDFLAQYGYMVENQTSFAVFTSNSKRCHDTAQYFIDGLGDQFNITLQTVSEAESAGANTLSACNSCPAWDYDANDDIVNEYDTTYLDDIAKRLNKENKGLNLTSTDASTLFSWCAFEVNAKGYSDVCDIFTKDELVHYSYYQDLHTYYHEGPGYDIIKSVGSNLFNASVKLLKQSEIQDQKVWLSFTHDTDILNFLTTAGIIDDKNNLTAEYVPFMGNTFHRSWYVPQGARVYTEKFQCSNDTYVRYVINDAVVPIETCSTGPGFSCEINDFYDYAEKRVAGTDFLKVCNVSSVSNSTELTFYWDWNTTHYNASLLRQ
Km [3]: 0.3 µM
